According to patent publication US20240270821A1, “GIP/GLP1/GCG TRI-RECEPTOR AGONISTS AND USES THEREOF” (priority 2023, published 2024):
Changes are numbered by the printed parent chain.

T1: human GIP receptor (human) (UniProt P48546)
T1 sequence (looked up): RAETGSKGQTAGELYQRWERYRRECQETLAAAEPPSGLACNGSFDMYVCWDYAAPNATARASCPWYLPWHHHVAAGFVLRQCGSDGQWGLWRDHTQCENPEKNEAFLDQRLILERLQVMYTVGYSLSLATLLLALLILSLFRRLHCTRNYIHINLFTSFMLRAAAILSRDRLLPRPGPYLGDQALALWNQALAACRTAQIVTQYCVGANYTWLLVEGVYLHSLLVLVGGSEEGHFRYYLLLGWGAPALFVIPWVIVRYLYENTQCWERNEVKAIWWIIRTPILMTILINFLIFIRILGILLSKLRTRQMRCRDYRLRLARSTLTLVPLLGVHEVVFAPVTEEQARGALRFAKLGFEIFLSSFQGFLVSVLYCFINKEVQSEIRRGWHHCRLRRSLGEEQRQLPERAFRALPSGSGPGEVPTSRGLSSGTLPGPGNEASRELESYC

B1: Example 1089 (peptide)
chain: YXQGTFTSDXSQXLDKKAQXAFIEYLIAGGPSSGAPPPSGEEE
modifications: non-natural residues; acylated Lys; C-terminal amide; synthetic construct; SITE 2: note = 2-Aminoisobutyric Acid; SITE 10: note = 3-(4-Pyridyl)-L-alanine; SITE 13: note = alpha-methyl-leucine; SITE 17: note = Lysine is chemically modified through conjugation of the epsilon-amino group of the Lysine side chain with (Glu)-(gamma-Glu)-CO-(CH2)16-CO2H; SIT
B2: Example 1088 (peptide)
chain: B1 chain
modifications: Aib, 4Pal, αMeL, Me4Pal, acylated K, C-terminal amide; synthetic construct; SITE 2: note = 2-Aminoisobutyric Acid; SITE 10: note = 3-(4-Pyridyl)-L-alanine; SITE 13: note = alpha-methyl-leucine; SITE 17: note = Lysine is chemically modified through conjugation of the epsilon-amino group of the Lysine side chain with D-Glutamic acid-(gamma-Glu)-CO-(CH2)16
B3: Example 1090 (peptide)
chain: B1 chain
modifications: acylated Lys, C-terminal amide, non-natural residues; synthetic construct; SITE 2: note = 2-Aminoisobutyric Acid; SITE 10: note = 3-(4-Pyridyl)-L-alanine; SITE 13: note = alpha-methyl-leucine; SITE 17: note = Lysine is chemically modified through conjugation of the epsilon-amino group of the Lysine side chain with (Glu)2-(gamma-Glu)-CO-(CH2)16-CO2H; SI
B4: Example 1093 (peptide)
chain: YXQGTFTSDXSQXLDXKAQXAFIEXLIEXGPSSGEPPPSGSEE
modifications: non-natural residues, C18 diacid-(γGlu)2 acyl on K, C-terminal amide; synthetic construct; SITE 2: note = 2-Aminoisobutyric Acid; SITE 10: note = 3-(4-Pyridyl)-L-alanine; SITE 13: note = alpha-methyl-leucine; SITE 16: note = L-ornithine; SITE 17: note = Lysine is chemically modified through conjugation of the epsilon-amino group of the Lysine side chain with (gamma-Gl)
B5: Example 1097 (peptide)
chain: B4 chain
modifications: non-natural residues; acylated Lys; C-terminal amide; synthetic construct; SITE 2: note = 2-Aminoisobutyric Acid; SITE 10: note = 3-(4-Pyridyl)-L-alanine; SITE 13: note = alpha-methyl-leucine; SITE 16: note = L-ornithine; SITE 17: note = Lysine is chemically modified through conjugation of the epsilon-amino group of the Lysine side chain with (2-[2-(2-
B6: Example 1098 (peptide)
chain: B4 chain with A21Q
modifications: non-natural residues, acylated Lys (AEEA-γGlu-C18 diacid), C-terminal amide; synthetic construct; SITE 2: note = 2-Aminoisobutyric Acid; SITE 10: note = 3-(4-Pyridyl)-L-alanine; SITE 13: note = alpha-methyl-leucine; SITE 16: note = L-ornithine; SITE 17: note = Lysine is chemically modified through conjugation of the epsilon-amino group of the Lysine side chain with (2-[2-(2-
B7: Example 1071 (peptide)
chain: YXQGTFTSDXSQXLDXKAQXAFIEXLIEGGPSSGAPPPSGSEEE
modifications: acylated Lys e-γGlu-C18 diacid; non-natural residues; C-terminal amide; synthetic construct; SITE 2: note = 2-Aminoisobutyric Acid; SITE 10: note = 3-(4-Pyridyl)-L-alanine; SITE 13: note = alpha-methyl-leucine; SITE 16: note = L-ornithine; SITE 17: note = Lysine is chemically modified through conjugation of the epsilon-amino group of the Lysine side chain with D-Glutami
B8: Example 1073 (peptide)
chain: B7 chain with E24Q
modifications: non-natural residues, acylated Lys (γGlu-C18 diacid), C-terminal amide; synthetic construct; SITE 2: note = 2-Aminoisobutyric Acid; SITE 10: note = 3-(4-Pyridyl)-L-alanine; SITE 13: note = alpha-methyl-leucine; SITE 16: note = L-ornithine; SITE 17: note = Lysine is chemically modified through conjugation of the epsilon-amino group of the Lysine side chain with D-Glutami
B9: Example 1084 (peptide)
chain: B7 chain with A21Q, I27L, E28A
modifications: not fully specified; Lys acylated γGlu-C18 diacid; non-natural residues; C-terminal amide; synthetic construct; SITE 2: note = 2-Aminoisobutyric Acid; SITE 10: note = 3-(4-Pyridyl)-L-alanine; SITE 13: note = alpha-methyl-leucine; SITE 16: note = L-ornithine; SITE 17: note = Lysine is chemically modified through conjugation of the epsilon-amino group of the Lysine side chain with D-Glutami
B10: Example 1083 (peptide)
chain: B7 chain with E24Q, I27L
modifications: Aib, 4Pal, Orn, Me4Pal, αMeY; acylated lysine; amide; synthetic construct; SITE 2: note = 2-Aminoisobutyric Acid; SITE 10: note = 3-(4-Pyridyl)-L-alanine; SITE 13: note = alpha-methyl-leucine; SITE 16: note = L-ornithine; SITE 17: note = Lysine is chemically modified through conjugation of the epsilon-amino group of the Lysine side chain with D-Glutami
B11: Example 1077 (peptide)
chain: B7 chain with E24Q
modifications: Glu-γGlu-C18 diacid on Lys; non-natural residues; amide; synthetic construct; SITE 2: note = 2-Aminoisobutyric Acid; SITE 10: note = 3-(4-Pyridyl)-L-alanine; SITE 13: note = alpha-methyl-leucine; SITE 16: note = L-ornithine; SITE 17: note = Lysine is chemically modified through conjugation of the epsilon-amino group of the Lysine side chain with (Glu)-(ga)
B12: Example 1081 (peptide)
chain: B7 chain with A21Q, E28A
modifications: Aib, 4Pal, Orn, Me4Pal, alpha-methyl-Tyr, lipidated Lys, amide; synthetic construct; SITE 2: note = 2-Aminoisobutyric Acid; SITE 10: note = 3-(4-Pyridyl)-L-alanine; SITE 13: note = alpha-methyl-leucine; SITE 16: note = L-ornithine; SITE 17: note = Lysine is chemically modified through conjugation of the epsilon-amino group of the Lysine side chain with D-Glutami
B13: Example 1076 (peptide)
chain: B7 chain with E24Q
modifications: non-natural residues (Aib, 4Pal, Orn, Me4Pal, αMeY); lipidated K; amide; synthetic construct; SITE 2: note = 2-Aminoisobutyric Acid; SITE 10: note = 3-(4-Pyridyl)-L-alanine; SITE 13: note = alpha-methyl-leucine; SITE 16: note = L-ornithine; SITE 17: note = Lysine is chemically modified through conjugation of the epsilon-amino group of the Lysine side chain with D-Glutami
B14: Example 1082 (peptide)
chain: B7 chain with I27L, E28A
modifications: Lys acylated γGlu-C18 diacid; non-natural residues; C-amide; synthetic construct; SITE 2: note = 2-Aminoisobutyric Acid; SITE 10: note = 3-(4-Pyridyl)-L-alanine; SITE 13: note = alpha-methyl-leucine; SITE 16: note = L-ornithine; SITE 17: note = Lysine is chemically modified through conjugation of the epsilon-amino group of the Lysine side chain with D-Glutami

Experiments:
Experiment in all cases: cell-based or functional assay
[1] = molecular target: T1, human GIP receptor (human)
hGLP-1R = hGLP-1R (Homo sapiens, UniProt P43220)
hGLP-1R, sequence (P43220 24-463): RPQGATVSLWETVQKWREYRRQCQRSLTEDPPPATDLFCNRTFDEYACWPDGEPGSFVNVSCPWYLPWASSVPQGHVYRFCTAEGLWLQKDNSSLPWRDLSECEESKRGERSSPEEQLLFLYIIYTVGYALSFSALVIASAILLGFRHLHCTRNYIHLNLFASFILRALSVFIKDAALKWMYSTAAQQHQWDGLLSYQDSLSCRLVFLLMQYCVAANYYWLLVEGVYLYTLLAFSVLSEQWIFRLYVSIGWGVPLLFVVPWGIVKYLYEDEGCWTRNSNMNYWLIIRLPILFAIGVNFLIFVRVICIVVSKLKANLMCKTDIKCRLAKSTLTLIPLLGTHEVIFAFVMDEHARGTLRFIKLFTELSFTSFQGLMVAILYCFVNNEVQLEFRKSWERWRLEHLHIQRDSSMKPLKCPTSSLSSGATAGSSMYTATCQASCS

[2] = molecular target: human glucagon receptor (human) (UniProt P47871)
human glucagon receptor (human), sequence (P47871 26-477): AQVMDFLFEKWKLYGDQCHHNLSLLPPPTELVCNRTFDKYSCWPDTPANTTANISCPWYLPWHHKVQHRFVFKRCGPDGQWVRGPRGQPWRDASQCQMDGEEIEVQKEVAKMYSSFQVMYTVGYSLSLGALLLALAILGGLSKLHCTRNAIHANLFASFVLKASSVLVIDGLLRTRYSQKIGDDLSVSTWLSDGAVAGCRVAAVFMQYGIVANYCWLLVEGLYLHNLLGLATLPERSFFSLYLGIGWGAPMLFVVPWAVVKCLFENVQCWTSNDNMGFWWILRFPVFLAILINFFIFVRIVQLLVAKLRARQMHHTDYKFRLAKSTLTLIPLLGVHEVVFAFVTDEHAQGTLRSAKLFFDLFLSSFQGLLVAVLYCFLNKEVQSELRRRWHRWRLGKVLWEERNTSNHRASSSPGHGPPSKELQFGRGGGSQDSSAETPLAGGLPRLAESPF

| Binder | Relative cAMP EC50 [1] | cAMP Rel EC50 (1% HSA) [1] | Relative cAMP EC50 (hGLP-1R) | cAMP Rel EC50 (1% HSA) (hGLP-1R) | Relative cAMP EC50 [2] | cAMP Rel EC50 (1% HSA) [2] |
| --- | --- | --- | --- | --- | --- | --- |
| B1 | 0.213 nM | 34.6 nM | 2.96 nM | 449 nM | 14 nM | 2580 nM |
| B2 | 0.182 nM | 15.6 nM | 2.99 nM | 367 nM | 14.8 nM | 1710 nM |
| B3 | 0.272 nM | 27.3 nM | 5.44 nM | 619 nM | 15.6 nM | 2010 nM |
| B4 | 0.152 nM | 26.8 nM | 0.954 nM | 141 nM | 7.72 nM | 958 nM |
| B5 | 0.136 nM | 27.3 nM | 1.59 nM | 141 nM | 6.16 nM | 752 nM |
| B6 | 0.201 nM | 31.2 nM | 1.22 nM | 184 nM | 6.2 nM | 994 nM |
| B7 | 0.261 nM | 40.2 nM | 2.06 nM | 425 nM | 23.5 nM | 2990 nM |
| B8 | 0.201 nM | 15.7 nM | 1.09 nM | 114 nM | 12.3 nM | 1490 nM |
| B9 | 0.0975 nM | 17.2 nM | 10.3 nM | 761 nM | 11.5 nM | 1390 nM |
| B10 | 0.328 nM | 20.5 nM | 7.76 nM | 547 nM | 15 nM | 1030 nM |
| B11 | 0.23 nM | 27.8 nM | 1.48 nM | 408 nM | 18.8 nM | 3160 nM |
| B12 | 0.105 nM | 8.44 nM | 1.29 nM | 151 nM | 19.7 nM | 2130 nM |
| B13 | 0.174 nM | 20.2 nM | 1.47 nM | 187 nM | 59 nM | 1650 nM |
| B14 | 0.099 nM | 12.3 nM | 4.13 nM | 677 nM | 12.3 nM | 1530 nM |
